Columns and labels:
RECQL5 11-438 = RECQL5 11-438 (human, UniProt O94762 11-438); experiment: fluorescence polarization; shared Bmax fit; FP: 10 mM HEPES pH 7.5, 150 mM NaCl, 25 C, 10 nM FITC probe; no nucleotide or Mg stated; details: protein: recombinant; tags: none (His tag cleaved with TEV); label: 5' fluorescein (FITC) on RQ-1; fork 1:2, 31 bp, RQ-1 5' arm 32 nt, RQ-3 3' arm 30 nt
RECQL5 11-526 R349A = RECQL5 11-526 R349A (human, UniProt O94762 11-526, R349A); experiment: fluorescence polarization; value marked * in table; FP: 10 mM HEPES pH 7.5, 150 mM NaCl, 25 C, 10 nM FITC probe; no nucleotide or Mg stated; details: protein: recombinant; tags: none (His tag cleaved with TEV); label: 5' fluorescein (FITC) on RQ-1; fork 1:2, 31 bp, RQ-1 5' arm 32 nt, RQ-3 3' arm 30 nt
RECQL5 11-526 R349A, sequence (O94762 11-526 R349A): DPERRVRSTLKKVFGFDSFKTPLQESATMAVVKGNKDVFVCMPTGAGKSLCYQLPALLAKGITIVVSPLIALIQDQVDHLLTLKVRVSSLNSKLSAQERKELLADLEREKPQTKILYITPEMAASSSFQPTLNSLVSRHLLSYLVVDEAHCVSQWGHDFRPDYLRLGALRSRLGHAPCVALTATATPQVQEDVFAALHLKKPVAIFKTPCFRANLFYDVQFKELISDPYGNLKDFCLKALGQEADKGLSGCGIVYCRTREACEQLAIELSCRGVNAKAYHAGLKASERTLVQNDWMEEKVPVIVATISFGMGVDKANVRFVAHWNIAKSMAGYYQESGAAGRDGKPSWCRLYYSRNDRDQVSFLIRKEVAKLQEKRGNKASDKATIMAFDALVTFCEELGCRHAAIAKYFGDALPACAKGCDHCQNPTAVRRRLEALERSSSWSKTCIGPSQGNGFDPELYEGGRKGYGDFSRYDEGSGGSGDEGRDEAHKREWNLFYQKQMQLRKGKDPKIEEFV

RECQL5 11-526 D168A = RECQL5 11-526 D168A (human, UniProt O94762 11-526, D168A); experiment: fluorescence polarization; FP: 10 mM HEPES pH 7.5, 150 mM NaCl, 25 C, 10 nM FITC probe; no nucleotide or Mg stated; details: protein: recombinant; tags: none (His tag cleaved with TEV); label: 5' fluorescein (FITC) on RQ-1; fork 1:2, 31 bp, RQ-1 5' arm 32 nt, RQ-3 3' arm 30 nt
RECQL5 11-526 D168A, sequence (O94762 11-526 D168A): as the sequence (O94762 11-526 R349A) above, with D158A, A339R counted along it

RECQL5 11-526 Q345A = RECQL5 11-526 Q345A (human, UniProt O94762 11-526, Q345A); experiment: as above; details: protein: recombinant; tags: none (His tag cleaved with TEV); label: 5' fluorescein (FITC) on RQ-1; fork 1:2, 31 bp, RQ-1 5' arm 32 nt, RQ-3 3' arm 30 nt
RECQL5 11-526 Q345A, sequence (O94762 11-526 Q345A): as the sequence (O94762 11-526 R349A) above, with Q335A, A339R counted along it

RECQL5 11-526 H167A = RECQL5 11-526 H167A (human, UniProt O94762 11-526, H167A); experiment: as above; details: protein: recombinant; tags: none (His tag cleaved with TEV); label: 5' fluorescein (FITC) on RQ-1; fork 1:2, 31 bp, RQ-1 5' arm 32 nt, RQ-3 3' arm 30 nt
RECQL5 11-526 H167A, sequence (O94762 11-526 H167A): as the sequence (O94762 11-526 R349A) above, with H157A, A339R counted along it

RECQL5 11-526 R352G = RECQL5 11-526 R352G (human, UniProt O94762 11-526, R352G); experiment: as above; details: protein: recombinant; tags: none (His tag cleaved with TEV); label: 5' fluorescein (FITC) on RQ-1; fork 1:2, 31 bp, RQ-1 5' arm 32 nt, RQ-3 3' arm 30 nt
RECQL5 11-526 R352G, sequence (O94762 11-526 R352G): as the sequence (O94762 11-526 R349A) above, with A339R, R342G counted along it

RECQL5 11-526 F420A = RECQL5 11-526 F420A (human, UniProt O94762 11-526, F420A); experiment: as above; details: protein: recombinant; tags: none (His tag cleaved with TEV); label: 5' fluorescein (FITC) on RQ-1; fork 1:2, 31 bp, RQ-1 5' arm 32 nt, RQ-3 3' arm 30 nt
RECQL5 11-526 F420A, sequence (O94762 11-526 F420A): as the sequence (O94762 11-526 R349A) above, with A339R, F410A counted along it

RECQL5 11-609 = RECQL5 11-609 (human, UniProt O94762 11-609); experiment: as above; details: protein: recombinant, tags: none (His tag cleaved with TEV)
RECQL5 11-609, sequence (O94762 11-609): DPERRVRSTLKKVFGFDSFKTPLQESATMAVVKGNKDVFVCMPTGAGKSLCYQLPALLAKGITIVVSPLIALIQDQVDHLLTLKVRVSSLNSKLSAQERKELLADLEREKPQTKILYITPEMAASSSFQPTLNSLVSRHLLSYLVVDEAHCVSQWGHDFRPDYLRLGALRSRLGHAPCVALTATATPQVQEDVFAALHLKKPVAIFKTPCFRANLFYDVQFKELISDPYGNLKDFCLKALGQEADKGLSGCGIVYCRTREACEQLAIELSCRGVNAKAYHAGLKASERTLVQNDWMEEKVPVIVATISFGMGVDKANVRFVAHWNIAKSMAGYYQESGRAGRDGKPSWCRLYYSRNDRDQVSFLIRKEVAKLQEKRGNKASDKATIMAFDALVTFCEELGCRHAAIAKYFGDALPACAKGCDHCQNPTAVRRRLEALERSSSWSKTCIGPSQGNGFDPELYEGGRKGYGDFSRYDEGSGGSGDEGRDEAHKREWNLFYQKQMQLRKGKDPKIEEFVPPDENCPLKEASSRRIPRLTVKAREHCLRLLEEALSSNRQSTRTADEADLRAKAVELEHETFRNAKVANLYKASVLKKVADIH

RECQL5 11-526 D422A = RECQL5 11-526 D422A (human, UniProt O94762 11-526, D422A); experiment: as above; details: protein: recombinant; tags: none (His tag cleaved with TEV); label: 5' fluorescein (FITC) on RQ-1; fork 1:2, 31 bp, RQ-1 5' arm 32 nt, RQ-3 3' arm 30 nt
RECQL5 11-526 D422A, sequence (O94762 11-526 D422A): as the sequence (O94762 11-526 R349A) above, with A339R, D412A counted along it

RECQL5 11-526 Y419A = RECQL5 11-526 Y419A (human, UniProt O94762 11-526, Y419A); experiment: as above; details: protein: recombinant; tags: none (His tag cleaved with TEV); label: 5' fluorescein (FITC) on RQ-1; fork 1:2, 31 bp, RQ-1 5' arm 32 nt, RQ-3 3' arm 30 nt
RECQL5 11-526 Y419A, sequence (O94762 11-526 Y419A): as the sequence (O94762 11-526 R349A) above, with A339R, Y409A counted along it

RECQL5 11-526 W165A = RECQL5 11-526 W165A (human, UniProt O94762 11-526, W165A); experiment: as above; details: protein: recombinant; tags: none (His tag cleaved with TEV); label: 5' fluorescein (FITC) on RQ-1; fork 1:2, 31 bp, RQ-1 5' arm 32 nt, RQ-3 3' arm 30 nt
RECQL5 11-526 W165A, sequence (O94762 11-526 W165A): as the sequence (O94762 11-526 R349A) above, with W155A, A339R counted along it

RECQL5 11-526 = RECQL5 11-526 (human, UniProt O94762 11-526); experiment: as above; details: protein: recombinant; tags: none (His tag cleaved with TEV); label: 5' fluorescein (FITC) on RQ-1; fork 1:2, 31 bp, RQ-1 5' arm 32 nt, RQ-3 3' arm 30 nt
RECQL5 11-526, sequence (O94762 11-526): as the sequence (O94762 11-526 R349A) above, with A339R counted along it

RECQL5 11-453 = RECQL5 11-453 (human, UniProt O94762 11-453); experiment: as above; details: protein: recombinant; tags: none (His tag cleaved with TEV); label: 5' fluorescein (FITC) on RQ-1; fork 1:2, 31 bp, RQ-1 5' arm 32 nt, RQ-3 3' arm 30 nt
RECQL5 11-453, sequence (O94762 11-453): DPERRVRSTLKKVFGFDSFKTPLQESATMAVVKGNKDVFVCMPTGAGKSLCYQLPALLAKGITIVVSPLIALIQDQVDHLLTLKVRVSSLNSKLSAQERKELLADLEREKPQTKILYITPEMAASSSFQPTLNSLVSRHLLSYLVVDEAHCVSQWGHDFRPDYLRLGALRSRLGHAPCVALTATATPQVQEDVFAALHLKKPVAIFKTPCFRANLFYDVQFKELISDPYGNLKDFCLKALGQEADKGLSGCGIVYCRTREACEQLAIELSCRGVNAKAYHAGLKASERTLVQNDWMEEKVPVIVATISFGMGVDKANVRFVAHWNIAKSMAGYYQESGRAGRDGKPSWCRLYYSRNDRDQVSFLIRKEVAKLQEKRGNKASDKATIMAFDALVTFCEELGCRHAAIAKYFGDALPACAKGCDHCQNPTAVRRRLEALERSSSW

RECQL5 11-438, sequence (O94762 11-438): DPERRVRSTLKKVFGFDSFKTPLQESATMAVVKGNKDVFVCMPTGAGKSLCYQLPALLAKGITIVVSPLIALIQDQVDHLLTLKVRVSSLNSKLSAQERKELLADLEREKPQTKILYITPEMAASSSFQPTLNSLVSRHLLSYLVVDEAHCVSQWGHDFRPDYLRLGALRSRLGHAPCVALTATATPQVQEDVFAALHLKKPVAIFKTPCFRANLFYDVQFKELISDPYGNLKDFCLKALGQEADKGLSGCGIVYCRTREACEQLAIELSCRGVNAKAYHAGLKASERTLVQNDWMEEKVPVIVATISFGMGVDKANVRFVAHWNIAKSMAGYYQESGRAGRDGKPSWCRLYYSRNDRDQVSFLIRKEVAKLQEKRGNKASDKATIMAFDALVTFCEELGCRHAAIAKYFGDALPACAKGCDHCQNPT

B1: splayed duplex (RQ-1 + RQ-3) (mixed)
DNA 1: ATCGATAGTCGGATCCTCTAGACAGCTCCATGTAGCAAGGCACTGGTAGAATTCGGCAGCGTC
DNA 2: GACGCTGCCGAATTCTACCAGTGCCTTGCTAGGACATCTTTGCCCACCTGCAGGTTCACCC
In the case of B1, the Kd (RECQL5 11-438) is reported as 164 ± 34 nM, the Kd (RECQL5 11-526 R349A) is reported as 295 ± 29 nM and the Kd (RECQL5 11-526 D168A) is reported as 25 ± 2 nM. The Kd (RECQL5 11-526 Q345A) was 85 ± 4 nM, the Kd (RECQL5 11-526 H167A) was 108 ± 5 nM and the Kd (RECQL5 11-526 R352G) was 29 ± 2 nM. For the same binder, the Kd (RECQL5 11-526 F420A) was 45 ± 3 nM, the Kd (RECQL5 11-609; label: 5' fluorescein (FITC) on RQ-1, fork 1:2, 31 bp, RQ-1 5' arm 32 nt, RQ-3 3' arm 30 nt) was 29 ± 4 nM and the Kd (RECQL5 11-526 D422A) was 38 ± 4 nM. For the same binder, the Kd (RECQL5 11-526 Y419A) was 39 ± 10 nM, the Kd (RECQL5 11-526 W165A) was 169 ± 6 nM and the Kd (RECQL5 11-526) was 51 ± 5 nM. It also gave a Kd (RECQL5 11-453) of 49 ± 28 nM.

B2: double stranded (RQ-1 + RQ-2) (dsDNA)
DNA 1: B1 DNA 1
DNA 2: GACGCTGCCGAATTCTACCAGTGCCTTGCTACATGGAGCTGTCTAGAGGATCCGACTATCGAT
B2: binds (RECQL5 11-609; label: 5' fluorescein (FITC) on RQ-1, blunt).

B3: single stranded (RQ-1) (ssDNA)
DNA: B1 DNA 1
B3: binds (RECQL5 11-609; label: 5' fluorescein (FITC), single strand).

From publication PMC5397160, “Insights into the RecQ helicase mechanism revealed by the structure of the helicase domain of human RECQL5”
